Experimental data as given in patent US20090191217A1 (published 2009).

B1: DOM4-130-3 (other)
VL: DIQMTQSPSSLSASVGDRVTITCRASQDIYLNLDWYQQKPGKAPKLLIYGTSNLQSGVPSRFSGSGSGTDFTLTISSLQPEDFATYYCQPSFYFPYTFGQGTKVEIRR
B2: DOM4-130-46 (other)
VL: DIQMTQSPSSLSASVGDRVTITCRASQDIYLNLDWYQQKPGKAPKLLINFGSELQSGVPSRFSGSGSGTDFTLTISSLQPEDFATYYCQPSFYFPYTFGQGTKVEIRR
B3: DOM4-122-23 (other)
VL: DIQMTQSPSSLSASVGDRVTITCRASQWIGRELRWYQQKPGKAPMFLIYHASRLQRGVPSRFSGSGSGTDFTLTISSLQPEDFATYYCQQYHGWPLTFGQGTKVEIKR
B4: DOM4-122-6 (other)
VL: DIQMTQSPSSLSASVGDRVTITCRASQWIGRELRWYQQKPGKAPMFLIYHASRLQSGVPSRFSGSGSGTDFTLTISSLQPEDFATYYCQQYHGWPLTFGQGTKVEIKR
B5: DOM4-129-1 (other)
VL: DIQMTQSPSSLSASVGDRVTITCRASQNIDRELRWYQQKPGKAPMFLIYHASRLQRGVPSRFSGSGSGTDFTLTISSLQPEDFATYYCQQYHDFPLTFGQGTKVEIKR

Each binder was assayed against T1, Interleukin-1 receptor type 1 (IL-1R1) on cells (human, UniProt P14778 18-569) (assay: cell-based or functional assay).
T1 sequence (looked up): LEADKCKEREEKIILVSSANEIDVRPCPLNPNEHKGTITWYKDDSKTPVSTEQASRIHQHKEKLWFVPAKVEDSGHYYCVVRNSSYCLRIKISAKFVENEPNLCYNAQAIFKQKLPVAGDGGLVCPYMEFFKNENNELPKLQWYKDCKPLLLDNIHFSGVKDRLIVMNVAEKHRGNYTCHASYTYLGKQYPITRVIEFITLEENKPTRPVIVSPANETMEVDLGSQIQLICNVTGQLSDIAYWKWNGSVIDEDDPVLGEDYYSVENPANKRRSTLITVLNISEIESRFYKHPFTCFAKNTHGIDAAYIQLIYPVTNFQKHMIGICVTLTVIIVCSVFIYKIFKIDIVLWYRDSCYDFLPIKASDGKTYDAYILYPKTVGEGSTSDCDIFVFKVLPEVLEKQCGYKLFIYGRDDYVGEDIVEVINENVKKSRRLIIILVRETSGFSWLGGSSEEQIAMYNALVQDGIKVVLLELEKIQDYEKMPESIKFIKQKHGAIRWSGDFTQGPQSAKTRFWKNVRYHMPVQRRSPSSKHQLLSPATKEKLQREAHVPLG

Binder | ND50, inhibition of IL-1-induced IL-8 release from MRC-5 cells [nM]
B1 | ~30
B2 | ~1
B3 | ~1
B4 | ~10
B5 | ~10
